# Measurements published in patent US20110076303A1.
# Biological target: Foxn1 having a Flag tag (expressed from the Foxn1 expression vector, CMV promoter, in mouse epidermal cells)
# Test: cell-based or functional assay
substance,measurement,value
"AFF-4 having a C-Myc tag (expressed from the AFF-4 expression vector, CMV promoter, in mouse epidermal cells)","expression level of luciferase (reporter with a Foxn1 binding region upstream of an SV40 minimum promoter), relative to Foxn1 only = 1",5 fold
